Values of other authors, collected in article PMC3839795.

Target: Asp3 (position 2, ----SDNKTYG)
Test: NMR
Conditions: free peptide in solution (details not stated)

For SDNKTYG [Heptapeptide derived from turkey ovomucoid third domain (OMTKY3) (Meleagris gallopavo)], the pKa is given as “about 3.6”.
